Data: US20040030097A1, “Peptide mimetics” (priority 2000, published 2004)

Key:
[1] = system: HeLa cells; test: Toxicity experiments with HeLa cells; assay type: cell-based
[2] = Far UV circular dichroism, helical content; assay type: physicochemical; conditions: far UV CD, 278 K, 15 μM peptide, from ellipticity at 222 nm
Description: The far UV CD spectra of the peptide was recorded, on a Jasco-710 instrument, at 278 K, in a cuvette with a 2 mm path. Measurements were made every 0.1 nm, with a response time of 2 s and a bandwidth of 1 nm, at a scan speed of 50 nm/min. The spectra shown in the text represent an average over 20 scans. The peptide concentration, calculated from the absorbance at 280 nm (Pace et al., 1995) was 15 μM. The helical percentage was calculated from the mean residue ellipticity at 222 nm, taking into account the peptide length (Chen et al., 1974), according to the following:
where n is the number of residues in the peptide and θ^obs222 nm is the ellipticity of the peptide at 222 nm. The CD experiments were carried out using the same buffer conditions as in the surface plasmon resonance assays.
(§1) A helical content of 34% was calculated as described above was. […] (FIG. 5).

[3] = Temperature denaturation monitored by CD at 222 nm; assay type: physicochemical
Description: The thermal denaturation was measured by monitoring the change in signal at 222 nm over a temperature range of 5-80° C., in a cuvette with a 2 mm path. Measurements were made in 0.5 degrees increments, with a response time of 2 s and a bandwidth of 1 nm, at a temperature slope of 50° C./h. The peptide concentration calculated from the absorbance at 280 nm was 15 μM (Pace et al., 1995).
as §1

[4] = biological target: T1, IL-4Rα (recombinant extracellular domain of the receptor α-chain [C182A,Q206C]-IL4-BP) (Homo sapiens, UniProt P24394, C207A/Q231C); test: Surface plasmon resonance binding assay (BIAcore 2000) with immobilized IL-4Rα; conditions: 25° C., HBS buffer, physiological salt concentration
T1 construct: A recombinant extracellular domain of the receptor α-chain [C182A,Q206C]-IL4-BP was immobilized
Description: The binding affinities of the designed peptide mimetics were measured by surface plasmon resonance using a BIAcore 2000 (Pharmacia Biosensor AB). A recombinant extracellular domain of the receptor α-chain [C182A,Q206C]-IL4-BP was immobilized at a biosensor CM5 to a density of 1500 to 2000 pg/mm^2, as described by Shen et al. (Shen et al., 1996). Ligand binding was analyzed at 25° C. by perfusion with HBS buffer (10 mM Hepes, pH 7.4/150 mM NaCl/3.4 mM EDTA/0.005% surfactant P20) at a flow rate of 50 μl/min.

[5] = system: cell proliferation; conditions: EPO, read-out: EC50 (concentration for half maximal response); cited from earlier work

T1 sequence (P24394 26-232 C207A/Q231C): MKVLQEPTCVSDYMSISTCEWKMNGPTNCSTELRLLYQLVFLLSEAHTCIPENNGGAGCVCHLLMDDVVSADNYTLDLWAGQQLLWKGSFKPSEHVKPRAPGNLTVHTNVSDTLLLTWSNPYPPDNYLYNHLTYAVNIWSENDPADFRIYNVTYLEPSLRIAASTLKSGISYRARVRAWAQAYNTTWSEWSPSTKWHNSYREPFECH

Substance | toxicity to mammalian cells in combination with IL-4 ([1]; in combination with IL-4 at concentrations of up to 500 μM) | concentration up to which non-toxic to mammalian cells ([1]; solup10 alone) [µM] | helical content [2] [%] | reversibility of temperature-induced denaturation ([3]; 5-80° C., CD signal recovered upon cooling from 80 to 5° C.) | loss of helical content at assay temperature ([3]; 25° C.) | Kd [4] [µM] | EC50 [5] [nM]
solup10: 45-residue ROP-derived mini-protein containing the IL-4 binding site: MGTDIQRYERAQTLALLEKLNELDADKQADRLRKRLARNDWLFGS | non-toxic | ≥ 500 | 34 | reversible process | lost half of its helical content | 40 | –
EPO: cytokine erythropoietin | – | – | – | – | – | – | 0.02
